Data on 16 sequences can be found in the Immune Epitope Database (IEDB).

For orientation: Kd means the free concentration of one partner at which half of the binding sites on the other are occupied at equilibrium, for simple one-to-one binding. A low value points to a tighter complex. Usually IC50 stands for the point on the concentration scale where inhibition reaches its midpoint.

Experiment [1] deals with HLA-A*02:01. The experiment in a line: IEDB peptide-MHC binding, purified MHC/direct/fluorescence; filed as Kd, often an IC50 or EC50 that approximates it; ≥ and ≤ were set here for values at or beyond the usual limits of such assays.
A further experiment has as its target HLA-B*27:05. The description is as above. To be noted: source organism: Yersinia pestis Nepal516.
Another experiment deals with HLA-B*58:01. Described as above. To be noted: source organism: Yersinia pestis Nepal516.
Experiment [2] addresses HLA-A*24:03. Described as above. Conditions: source organism: Yersinia pestis.
Experiment [3] addresses HLA-B*15:01. The experiment is described as above.
The target in experiment [4] is HLA-A*26:01. The experiment is described as above. To be noted: source organism: Yersinia pestis Nepal516.
The target in experiment [5] is HLA-A*03:01. Described as above.
The target in another experiment is HLA-A*30:01. The description is as above. Conditions: source organism: Yersinia pestis.
Experiment [6] deals with HLA-B*08:01. The experiment is described as above. Conditions: source organism: Yersinia pestis Nepal516.
Another experiment deals with HLA-B*07:02. The experiment is described as above. Conditions: source organism: Yersinia pestis Nepal516.
Another experiment concerns the target HLA-B*44:02. The experiment is described as above. To be noted: source organism: Yersinia pestis Nepal516.
The next experiment has as its target HLA-B*40:01. The experiment is described as above. To be noted: source organism: Yersinia pestis Nepal516.
The target in a further experiment is HLA-A*69:01. Described as above. Conditions: source organism: Yersinia pestis Nepal516.
A further experiment addresses HLA-A*23:01. The experiment in a line: IEDB peptide-MHC binding, purified MHC/competitive/fluorescence; filed as Kd, often an IC50 or EC50 that approximates it; ≥ and ≤ were set here for values at or beyond the usual limits of such assays.
Experiment [7] has as its target HLA-A*02:01. The experiment in a line: IEDB peptide-MHC binding, purified MHC/competitive/radioactivity; ≥ and ≤ were set here for values at or beyond the usual limits of such assays.
The target of another experiment is HLA-B*83:01. In words: IEDB peptide-MHC binding, purified MHC/competitive/fluorescence; filed as Kd, often an IC50 or EC50 that approximates it; ≥ and ≤ were set here for values at or beyond the usual limits of such assays. To be noted: source organism: Escherichia coli 536.
A further experiment has as its target HLA-B*45:06. The experiment is described as above. Conditions: source organism: Escherichia coli 536.
The target of another experiment is HLA-B*15:42. The experiment is described as above. Conditions: source organism: Escherichia coli 536.
For experiment [8], the target named is HLA-B*51:01. The experiment is described as above.
Experiment [9] has as its target HLA-B*35:01. Described as above.
In experiment [10] the target is HLA-B*08:01. The description is as above. Conditions: source organism: Escherichia coli 536.
Experiment [11] addresses HLA-B*57:01. The experiment in a line: IEDB peptide-MHC binding, purified MHC/direct/fluorescence; filed as Kd, often an IC50 or EC50 that approximates it; ≥ and ≤ were set here for values at or beyond the usual limits of such assays. Conditions: source organism: West Nile virus.
The target in a further experiment is HLA-A*01:01. The description is as above.
Experiment [12] deals with HLA-B*51:01. The description is as above. Conditions: source organism: West Nile virus.
The target in experiment [13] is HLA-B*35:01. The experiment is described as above.
The target in a further experiment is HLA-A*29:02. The experiment in a line: IEDB peptide-MHC binding, purified MHC/competitive/fluorescence; filed as Kd, often an IC50 or EC50 that approximates it; ≥ and ≤ were set here for values at or beyond the usual limits of such assays. Conditions: source organism: Vibrio antiquarius.
The target of the next experiment is HLA-B*46:01. The description is as above. To be noted: source organism: Vibrio antiquarius.
Experiment [14] has as its target HLA-A*02:01. The experiment is described as above. Conditions: source organism: Vibrio antiquarius.
Experiment [15] deals with HLA-A*24:03. Described as above. Conditions: source organism: Vibrio antiquarius.
For experiment [16], the target named is HLA-B*15:01. Described as above.
The target of experiment [17] is HLA-A*26:01. The description is as above. Conditions: source organism: Vibrio antiquarius.
The target in experiment [18] is HLA-A*03:01. The description is as above. To be noted: source organism: Vibrio antiquarius.
The target of experiment [19] is HLA-B*57:01. The description is as above. Conditions: source organism: Vibrio antiquarius.
Another experiment concerns the target HLA-B*39:01. The description is as above. To be noted: source organism: Vibrio antiquarius.
The target of a further experiment is HLA-A*02:12. The description is as above. To be noted: source organism: Vibrio antiquarius.
Another experiment has as its target HLA-B*18:01. Described as above. To be noted: source organism: Vibrio antiquarius.
The next experiment addresses HLA-B*27:03. Described as above. Conditions: source organism: Vibrio antiquarius.
The target of the next experiment is HLA-B*15:17. Described as above. Conditions: source organism: Vibrio antiquarius.
The target in a further experiment is HLA-A*11:01. In words: IEDB peptide-MHC binding, purified MHC/direct/fluorescence; filed as Kd, often an IC50 or EC50 that approximates it; ≥ and ≤ were set here for values at or beyond the usual limits of such assays. Conditions: source organism: Yersinia pestis Nepal516.
The target in the next experiment is HLA-A*31:01. The description is as above. Conditions: source organism: Yersinia pestis Nepal516.
Where [20] appears, read: source organism: Yersinia pestis Nepal516.
The mark [21] stands for this setting: source organism: Yersinia pestis.
The mark [22] stands for this setting: source organism: Escherichia coli 536.
Where [23] appears, read: source organism: Mycobacterium tuberculosis variant bovis.
Where [24] appears, read: source organism: Vibrio antiquarius.

Some results are limits rather than exact numbers.

Turning to AFASLQDML, the Kd is no less than 20 µM with HLA-A*02:01 [1] (setting [20]); no less than 20 µM in the experiment with HLA-B*27:05; no less than 20 µM with HLA-B*58:01; 1.28 µM with HLA-A*24:03 [2]; no less than 20 µM in the experiment with HLA-B*15:01 [3] (setting [20]); no less than 20 µM with HLA-A*26:01 [4]. Besides, the Kd with HLA-A*03:01 [5] (setting [21]), with HLA-A*30:01, in the experiment with HLA-B*08:01 [6], with HLA-B*07:02, with HLA-B*44:02 and in the experiment with HLA-B*40:01 was no less than 20 µM each time. Further, the Kd with HLA-A*69:01 is no less than 20 µM.

FFIQTDAAI: in the experiment with HLA-A*23:01 (source organism: Paramagnetospirillum magnetotacticum MS-1), the Kd amounted to 0.0017 µM.

Turning to GLGQVPLIV, the IC50 in the experiment with HLA-A*02:01 [7] (source organism: Homo sapiens) was 0.5 µM.

With GLSRYVARLS, the 50% inhibitory concentration (IC50) in the experiment with HLA-A*02:01 [7] (source organism: Hepatitis B virus) was 0.877 µM.

Regarding HPASRLFPF, the Kd with HLA-B*83:01 was 0.0534 µM; with HLA-B*45:06 it was no less than 5 µM; in the experiment with HLA-B*15:42 it was no less than 5 µM; in the experiment with HLA-B*51:01 [8] (setting [22]) it was no less than 20 µM; in the experiment with HLA-B*35:01 [9] (setting [22]), 0.0002 µM; with HLA-B*08:01 [10], 0.0434 µM.

LAALGDTAW: the Kd amounted to 6.18 µM with HLA-B*57:01 [11] and 0.0892 µM in the experiment with HLA-B*35:01 [9] (source organism: Japanese encephalitis virus).

As to LLDGTATLRL, the IC50 with HLA-A*02:01 [7] (source organism: Homo sapiens) amounted to 0.5 µM.

In turn, LYQKNIEHF displayed a Kd with HLA-A*23:01 (source organism: Vibrio vulnificus YJ016) of no more than 0.0001 µM.

In the case of MLAPSTLGY, the Kd with HLA-A*03:01 [5] (setting [23]) was 0.0345 µM; with HLA-A*01:01 (setting [23]) it was 0.052 µM; in the experiment with HLA-B*35:01 [9] (source organism: Mycobacterium tuberculosis F11) it was no more than 0.0001 µM.

In the case of PTLDKVLEV, the IC50 with HLA-A*02:01 [7] (source organism: Homo sapiens) came out at 2 µM.

For the sequence QPAFMVASF, the dissociation constant Kd is no less than 20 µM with HLA-B*51:01 [12] and 0.007 µM in the experiment with HLA-B*35:01 [13] (source organism: West Nile virus).

As for RMYSPISIL, the IC50 with HLA-A*02:01 [7] (source organism: Human immunodeficiency virus 1) turned out to be 0.056 µM.

For the sequence VILGVLLLI, the IC50 with HLA-A*02:01 [7] (source organism: Homo sapiens) is 0.164 µM.

For the sequence VTGCASLYV, the dissociation constant Kd was no less than 20 µM in the experiment with HLA-A*29:02; no less than 20 µM in the experiment with HLA-B*46:01; 0.0463 µM with HLA-A*02:01 [14]; no less than 20 µM with HLA-A*24:03 [15]; no less than 20 µM in the experiment with HLA-A*23:01 (setting [24]); no less than 20 µM in the experiment with HLA-B*15:01 [16] (setting [24]). Besides, the dissociation constant (Kd) was no less than 20 µM with HLA-B*51:01 [8] (setting [24]); no less than 20 µM with HLA-A*26:01 [17]; no less than 20 µM with HLA-A*03:01 [18]; no less than 20 µM in the experiment with HLA-B*57:01 [19]; no less than 20 µM with HLA-B*39:01; 0.0368 µM with HLA-A*02:12. For the same sequence, the Kd with HLA-B*18:01, with HLA-B*27:03 and in the experiment with HLA-B*15:17 was no less than 20 µM each time.

As for YLHRDIFDI, the Kd was 0.0365 µM in the experiment with HLA-A*02:01 [1] (setting [21]); no less than 20 µM with HLA-B*27:05; no less than 20 µM in the experiment with HLA-B*58:01; no less than 20 µM with HLA-A*24:03 [2]; 8.64 µM with HLA-B*15:01 [3] (setting [21]); no less than 20 µM in the experiment with HLA-A*11:01. Further, the Kd with HLA-A*26:01 [4] is no less than 20 µM; with HLA-A*03:01 [5] (setting [20]), no less than 20 µM; with HLA-B*35:01 [13] (setting [21]), 0.113 µM; with HLA-B*08:01 [6], no less than 20 µM; with HLA-B*07:02, no less than 20 µM; with HLA-B*44:02, no less than 20 µM. For the same sequence, the Kd with HLA-A*31:01, with HLA-B*40:01, with HLA-A*01:01 (setting [20]) and in the experiment with HLA-A*69:01 was no less than 20 µM in each case.

Take YSRMLYIEF: the dissociation constant (Kd) was no less than 5 µM with HLA-B*83:01; 4.2 µM with HLA-B*15:01 [16] (setting [22]); no less than 5 µM with HLA-B*45:06; no less than 5 µM in the experiment with HLA-B*15:42; no less than 20 µM with HLA-B*08:01 [10].
